How the values were obtained:
Escherichia coli HB101 = assay: Growth inhibition of Escherichia coli HB101 by aspartic acid analog compounds and recovery by additives; type: cell-based; settings: E. coli HB101 in M9 medium, absorbance at 660 nm; FIGS. 1-3
Protocol: It is proposed, as a general structure of an inhibitor of phosphoenolpyruvate carboxylase, that a C4 dicarboxylic acid structure is essentially provided. From such a viewpoint, various compounds were subjected to screening by the present inventors. Escherichia coli HB101 was cultivated in an LB medium, and transferred to M9 media (containing 20 μg/ml of thiamine and 3 μg/ml of each of Leu and Pro) containing any one of DL-2-amino-4-phosphonobutyric acid, bromosuccinic acid, meso-2,3-dibromosuccinic acid, 2,2-difluorosuccinic acid, 3-bromopyruvic acid, α-ketobutyric acid, α-ketoadipinic acid DL-threo-β-hydroxyaspartic acids L-aspartic acid β-metyl ester α-metyl-DL-aspartic acid, 2,3-diaminosuccinic acid or aspartic acid-β-hydrazide, and absorbance of the medium was measured at 660 nm with the passage of time, thereby growth was monitored.
Further, when these compounds were present at their growth inhibitory concentrations, it was investigated whether or not the inhibition was recovered by addition of nucleic acids (each of uridine, adenosine: 10 mg/dl), glutamic acid or amino acids of the aspartic acid family (Asp: 0.025%, each of Met, Thr, Lys: 0.1%).
Further, growth recovery of Escherichia coli, in the case of addition of the aforementioned inhibition recovering substances alone or as a mixture of 2 species or 3 species, is shown in FIGS. 4-6. […]

[1] = system: phosphoenolpyruvate carboxylase; assay: Sensitivity of phosphoenolpyruvate carboxylase activity to aspartic acid; type: biochemical, Escherichia coli
Text: When the microorganism transformed with the DNA sequence of the present invention as described above is cultivated, and this DNA sequence is expressed, then a mutant enzyme is obtained. It becomes apparent, by measuring the activity by adding aspartic acid to an enzyme reaction system, whether or not the mutant enzyme thus obtained has desensitized feedback inhibition by aspartic acid. It is possible for the measurement of the enzyme activity to use a spectrometric method (Yoshinage, T., Izui, K. and Katsuki, H., J. Biochem., 68, 747-750 (1970)) and the like.
(§1) Sensitivity to aspartic acid was investigated in accordance with a known method (Yoshinaga, T., Izui, K. and Katsuki, H., J. Biochem., 68, 747-750 (1970)). Namely, as a result of measurement of the enzyme activity produced by each of the transformants or Escherichia coli harboring pS2 in the presence of acetyl-coenzyme A known to affect the activity in an activity measurement system at a concentration of 0.1 mM or 1 mM, sensitivity to aspartic acid was measured as shown in FIGS. 9 and 10.
as §1, with “activity” for “activity produced by each of the transformants or Escherichia coli harboring pS2”, “of 1” for “of 0.1”, “or 2” for “or 1”, “in FIG. 12.” for “in FIGS. 9 and 10.”
as §1, with “activity” for “activity produced by each of the transformants or Escherichia coli harboring pS2”, “of 1” for “of 0.1”, “or 2” for “or 1”, “in FIG. 13.” for “in FIGS. 9 and 10.”

Row | Molecule | growth inhibition of Escherichia coli (Escherichia coli HB101) | enzyme activity at high aspartic acid concentration (sensitivity to aspartic acid) ([1]; Example 2, acetyl-coenzyme A 0.1 mM or 1 mM, FIGS. 9 and 10) | enzyme activity at high aspartic acid concentration (sensitivity to aspartic acid) ([1]; Example 6 <3>, pT2R438C (438th Arg to Cys), acetyl-coenzyme A 1 mM or 2 mM, FIG. 12) | enzyme activity at high aspartic acid concentration (sensitivity to aspartic acid) ([1]; Example 6 <5>, pT2K620S, acetyl-coenzyme A 1 mM or 2 mM, FIG. 13)
1 | N[C@H](C(=O)O)[C@H](O)C(=O)O (relative stereo) [DL-threo-β-hydroxyaspartate] | growth inhibition | – | – | –
2 | NNC(=O)CC(N)C(=O)O (stereo not drawn) [aspartate-β-hydrazide] | growth inhibition | – | – | –
3 | wild type enzyme: wild type phosphoenolpyruvate carboxylase of Escherichia coli, expressed from pS2 or pT2 (protein, UniProt P00864 1-883, looked up) Phosphoenolpyruvate …: MNEQYSALRSNVSMLGKVLGETIKDALGEHILERVETIRKLSKSSRAGNDANRQELLTTLQNLSNDELLPVARAFSQFLNLANTAEQYHSISPKGEAASNPEVIARTLRKLKNQPELSEDTIKKAVESLSLELVLTAHPTEITRRTLIHKMVEVNACLKQLDNKDIADYEHNQLMRRLRQLIAQSWHTDEIRKLRPSPVDEAKWGFAVVENSLWQGVPNYLRELNEQLEENLGYKLPVEFVPVRFTSWMGGDRDGNPNVTADITRHVLLLSRWKATDLFLKDIQVLVSELSMVEATPELLALVGEEGAAEPYRYLMKNLRSRLMATQAWLEARLKGEELPKPEGLLTQNEELWEPLYACYQSLQACGMGIIANGDLLDTLRRVKCFGVPLVRIDIRQESTRHTEALGELTRYLGIGDYESWSEADKQAFLIRELNSKRPLLPRNWQPSAETREVLDTCQVIAEAPQGSIAAYVISMAKTPSDVLAVHLLLKEAGIGFAMPVAPLFETLDDLNNANDVMTQLLNIDWYRGLIQGKQMVMIGYSDSAKDAGVMAASWAQYQAQDALIKTCEKAGIELTLFHGRGGSIGRGGAPAHAALLSQPPGSLKGGLRVTEQGEMIRFKYGLPEITVSSLSLYTGAILEANLLPPPEPKESWRRIMDELSVISCDVYRGYVRENKDFVPYFRSATPEQELGKLPLGSRPAKRRPTGGVESLRAIPWIFAWTQNRLMLPAWLGAGTALQKVVEDGKQSELEAMCRDWPFFSTRLGMLEMVFAKADLWLAEYYDQRLVDKALWPLGKELRNLQEEDIKVVLAIANDSHLMADLPWIAESIQLRNIYTDPLNVLQAELLHRSRQAEKEGQEPDPRVEQALMVTIAGIAAGMRNTG | – | loses its activity | substantially loses its activity | substantially loses its activity

From US5919694A, “Mutant phosphoenolpyruvate carboxylase, its gene, and production method of amino acid” (Ajinomoto Co., Inc., priority 1993, dated 1999)
